Measured values: publication PMC3675627, “Structures of Arenaviral Nucleoproteins with Triphosphate dsRNA Reveal a Unique Mechanism of Immune Suppression*”

B1: 8-bp 5'-ppp dsRNA (input) (dsRNA)
RNA 1: GGGCGCCC
RNA 2: GGGCGCCC
modifications: 5'-triphosphate
B2: cleaved intermediate of the 5'-ppp dsRNA (4-nt cleaving strand, 8-nt complementary strand) (dsRNA)
RNA 1: GGGC
RNA 2: GGGCGCCC
modifications: 5'-triphosphate

Experiments:
[1] = biological target: T1, LASV NP-C (catalytically active exoribonuclease domain) (Lassa virus, UniProt P13699 364-569); assay: […], pH 5.5, room temperature; […]; details: protein: recombinant; blunt; self-complementary, 2 copies of one strand
[2] = biological target: T1, LASV NP-C (catalytically active …); assay: X-ray crystallography, 1.68 A; […], pH 5.5, room temperature; […]; details: protein: recombinant; 5' overhang 4 nt on complementary strand

T1 sequence (P13699 364-569): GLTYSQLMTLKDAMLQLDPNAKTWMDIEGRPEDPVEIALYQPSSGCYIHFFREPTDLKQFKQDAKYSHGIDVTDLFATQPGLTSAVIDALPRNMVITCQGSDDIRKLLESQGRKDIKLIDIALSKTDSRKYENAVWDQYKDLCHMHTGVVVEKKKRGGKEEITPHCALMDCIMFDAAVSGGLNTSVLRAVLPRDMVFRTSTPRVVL

Row | Binder | binding result [1] | binding result [2]
1 | B1 | binds | –
2 | B2 | – | binds
